# Test results: patent US20110136740A1 (Stanford University, published 2011)
# Ends that are not written are not given here.
# B1: engineered AgRP peptide 2bA (soluble, N-terminal FLAG tag and C-terminal hexahistidine tag) (peptide)
# chain: DYKDDDDKGCVRLHESCLGQQVPCCDPAATCYCLKRGDWKGKCYCRHHHHHH
# modifications: ends and bridges not checked; cysteine pairing not given here
# notes: also called clone 2bA; αIIbβ3-specific peptide 2bA
# B2: engineered AgRP peptide 2bJ (soluble, N-terminal FLAG tag and C-terminal hexahistidine tag) (peptide)
# chain: DYKDDDDKGCVRLHESCLGQQVPCCDPAATCYCNKRGDWRSKCYCRHHHHHH
# modifications: ends and bridges not checked; cysteine pairing not given here
# notes: also called clone 2bJ; αIIbβ3-specific peptide 2bJ
# B3: engineered AgRP peptide 2bO (soluble, N-terminal FLAG tag and C-terminal hexahistidine tag) (peptide)
# chain: DYKDDDDKGCVRLHESCLGQQVPCCDPAATCYCKKRGDWKERCYCRHHHHHH
# modifications: ends and bridges not checked; cysteine pairing not given here
# notes: also called clone 2bO; αIIbβ3-specific peptide 2bO
# B4: engineered AgRP peptide b3I (soluble, N-terminal FLAG tag and C-terminal hexahistidine tag) (peptide)
# chain: DYKDDDDKGCVRLHESCLGQQVPCCDPAATCYCRGRGDVKLRCYCRHHHHHH
# modifications: ends and bridges not checked; cysteine pairing not given here
# notes: also called clone b3I; β3-specific peptide b3I
# B5: engineered AgRP peptide b3A (soluble, N-terminal FLAG tag and C-terminal hexahistidine tag) (peptide)
# chain: DYKDDDDKGCVRLHESCLGQQVPCCDPAATCYCVGRGDVRRKCYCRHHHHHH
# modifications: ends and bridges not checked; cysteine pairing not given here
# notes: also called clone b3A; β3-specific peptide b3A
# What was measured:
# [1] = target: αIIbβ3 integrin on human platelets (human) (UniProt P08514); test: cell-based or functional assay
# [2] = target: T1, αvβ5 integrin expressed on K562-αvβ5 cells (UniProt P06756 31-1048; P18084 24-799); test: flow cytometry, direct binding to K562-αvβ5 cells
# T1 construct: whole, on cells
# T1 sequence (P06756 31-1048, chain 1 of 2): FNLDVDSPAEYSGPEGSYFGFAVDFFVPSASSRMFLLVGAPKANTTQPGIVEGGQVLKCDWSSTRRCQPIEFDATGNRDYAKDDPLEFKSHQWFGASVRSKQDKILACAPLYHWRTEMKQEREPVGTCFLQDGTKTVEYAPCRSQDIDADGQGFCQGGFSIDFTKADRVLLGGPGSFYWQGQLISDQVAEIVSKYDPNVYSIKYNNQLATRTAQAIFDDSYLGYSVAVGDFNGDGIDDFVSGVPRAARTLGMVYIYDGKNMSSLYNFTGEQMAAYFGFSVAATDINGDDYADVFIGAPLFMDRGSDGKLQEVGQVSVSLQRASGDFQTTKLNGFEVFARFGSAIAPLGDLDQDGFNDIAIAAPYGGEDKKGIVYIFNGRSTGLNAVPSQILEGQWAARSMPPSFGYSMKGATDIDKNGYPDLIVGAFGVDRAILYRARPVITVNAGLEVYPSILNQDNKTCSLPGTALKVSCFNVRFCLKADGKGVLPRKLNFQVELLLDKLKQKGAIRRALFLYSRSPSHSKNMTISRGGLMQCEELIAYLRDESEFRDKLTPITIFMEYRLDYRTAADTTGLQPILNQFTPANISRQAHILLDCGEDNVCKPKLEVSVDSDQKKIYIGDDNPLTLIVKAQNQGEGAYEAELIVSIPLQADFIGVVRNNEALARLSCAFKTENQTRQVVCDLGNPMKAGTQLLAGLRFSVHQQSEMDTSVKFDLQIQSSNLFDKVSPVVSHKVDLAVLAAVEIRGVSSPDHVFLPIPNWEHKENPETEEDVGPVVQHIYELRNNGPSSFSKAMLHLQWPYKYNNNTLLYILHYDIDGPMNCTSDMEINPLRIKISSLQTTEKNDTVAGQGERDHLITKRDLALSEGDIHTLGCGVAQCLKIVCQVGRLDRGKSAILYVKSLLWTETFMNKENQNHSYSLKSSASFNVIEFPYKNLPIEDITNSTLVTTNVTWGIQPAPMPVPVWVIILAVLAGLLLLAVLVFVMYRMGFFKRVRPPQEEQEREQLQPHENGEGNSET
# T1 sequence (P18084 24-799, chain 2 of 2): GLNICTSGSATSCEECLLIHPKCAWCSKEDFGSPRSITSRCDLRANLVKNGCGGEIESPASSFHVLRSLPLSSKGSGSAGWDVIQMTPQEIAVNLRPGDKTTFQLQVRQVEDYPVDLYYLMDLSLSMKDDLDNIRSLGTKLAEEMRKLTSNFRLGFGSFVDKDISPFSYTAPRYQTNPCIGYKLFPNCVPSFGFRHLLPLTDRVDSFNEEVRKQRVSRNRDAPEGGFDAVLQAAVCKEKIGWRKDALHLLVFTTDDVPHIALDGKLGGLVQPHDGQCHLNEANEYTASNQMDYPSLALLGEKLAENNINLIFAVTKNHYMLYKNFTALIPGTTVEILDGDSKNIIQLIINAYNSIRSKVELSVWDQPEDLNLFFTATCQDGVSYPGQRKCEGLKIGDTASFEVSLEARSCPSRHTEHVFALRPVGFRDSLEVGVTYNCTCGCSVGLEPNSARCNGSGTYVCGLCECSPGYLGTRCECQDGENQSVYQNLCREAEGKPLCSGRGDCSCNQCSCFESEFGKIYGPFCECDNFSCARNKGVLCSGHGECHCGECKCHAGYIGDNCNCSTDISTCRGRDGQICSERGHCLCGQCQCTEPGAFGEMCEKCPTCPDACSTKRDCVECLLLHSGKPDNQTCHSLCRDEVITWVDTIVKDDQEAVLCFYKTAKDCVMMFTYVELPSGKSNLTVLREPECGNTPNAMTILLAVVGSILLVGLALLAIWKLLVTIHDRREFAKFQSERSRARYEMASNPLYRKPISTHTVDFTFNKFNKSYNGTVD
# [3] = target: T2, α5β1 integrin naturally expressed on wild-type K562 cells (UniProt P08648 42-1049; P05556 21-798); test: flow cytometry, direct binding to wild-type K562 cells
# T2 construct: whole, on cells
# T2 sequence (P08648 42-1049, chain 1 of 2): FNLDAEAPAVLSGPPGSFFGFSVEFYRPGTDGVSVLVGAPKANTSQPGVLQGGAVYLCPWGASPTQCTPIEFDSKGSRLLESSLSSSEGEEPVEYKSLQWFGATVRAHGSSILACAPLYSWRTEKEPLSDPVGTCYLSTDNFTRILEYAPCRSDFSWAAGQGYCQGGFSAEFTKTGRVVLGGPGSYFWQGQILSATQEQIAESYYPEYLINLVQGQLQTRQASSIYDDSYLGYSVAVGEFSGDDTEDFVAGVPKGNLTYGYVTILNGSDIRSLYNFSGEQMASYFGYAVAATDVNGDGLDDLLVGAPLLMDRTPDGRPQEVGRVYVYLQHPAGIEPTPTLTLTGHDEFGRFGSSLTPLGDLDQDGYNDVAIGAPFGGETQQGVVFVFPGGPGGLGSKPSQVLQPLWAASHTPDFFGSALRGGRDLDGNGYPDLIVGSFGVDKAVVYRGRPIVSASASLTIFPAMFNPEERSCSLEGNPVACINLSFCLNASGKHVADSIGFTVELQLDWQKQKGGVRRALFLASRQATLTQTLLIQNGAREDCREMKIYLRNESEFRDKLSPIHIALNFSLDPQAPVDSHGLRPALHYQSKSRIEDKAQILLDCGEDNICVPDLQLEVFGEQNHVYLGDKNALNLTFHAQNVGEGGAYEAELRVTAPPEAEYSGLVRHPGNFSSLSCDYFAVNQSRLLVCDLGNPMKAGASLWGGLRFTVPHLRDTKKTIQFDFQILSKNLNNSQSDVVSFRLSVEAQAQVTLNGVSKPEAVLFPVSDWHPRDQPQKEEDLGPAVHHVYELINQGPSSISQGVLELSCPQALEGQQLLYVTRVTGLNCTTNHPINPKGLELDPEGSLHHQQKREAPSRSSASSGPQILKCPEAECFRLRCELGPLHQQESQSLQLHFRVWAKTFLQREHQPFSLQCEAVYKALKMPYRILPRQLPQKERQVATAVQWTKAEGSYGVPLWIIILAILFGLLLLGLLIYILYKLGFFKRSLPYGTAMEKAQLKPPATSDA
# T2 sequence (P05556 21-798, chain 2 of 2): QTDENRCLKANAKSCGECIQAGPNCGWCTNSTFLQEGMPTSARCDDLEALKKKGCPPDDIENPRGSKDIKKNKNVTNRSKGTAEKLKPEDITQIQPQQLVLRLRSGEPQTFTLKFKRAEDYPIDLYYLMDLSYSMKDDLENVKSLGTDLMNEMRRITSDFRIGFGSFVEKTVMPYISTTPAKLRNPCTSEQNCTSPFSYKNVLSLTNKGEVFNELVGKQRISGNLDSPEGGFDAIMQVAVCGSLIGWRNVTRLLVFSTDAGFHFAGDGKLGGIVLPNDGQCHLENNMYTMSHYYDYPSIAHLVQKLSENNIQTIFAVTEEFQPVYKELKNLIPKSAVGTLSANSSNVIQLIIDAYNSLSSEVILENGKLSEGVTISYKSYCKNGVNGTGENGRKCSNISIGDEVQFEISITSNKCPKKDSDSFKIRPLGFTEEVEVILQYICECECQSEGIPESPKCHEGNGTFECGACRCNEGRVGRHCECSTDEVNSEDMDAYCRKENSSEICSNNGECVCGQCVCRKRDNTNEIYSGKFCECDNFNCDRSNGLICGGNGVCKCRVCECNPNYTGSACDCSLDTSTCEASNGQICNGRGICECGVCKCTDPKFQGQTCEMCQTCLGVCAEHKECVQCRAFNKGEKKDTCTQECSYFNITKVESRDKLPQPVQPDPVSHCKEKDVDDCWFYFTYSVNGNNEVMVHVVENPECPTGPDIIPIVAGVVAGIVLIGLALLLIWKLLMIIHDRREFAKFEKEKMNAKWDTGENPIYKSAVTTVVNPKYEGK
# [4] = target: T3, αIIbβ3 integrin expressed on K562-αIIbβ3 cells (UniProt P08514 32-1039; P05106 27-788); test: flow cytometry, peptide titrated on K562-αIIbβ3 cells, anti-His detection
# T3 construct: whole, on cells; also called cell surface expressed αIIbβ3 integrin; GPIIb-IIIa
# [5] = target: αIIbβ3 integrin on human platelets (human, UniProt P08514 32-1039; P05106 27-788); test: cell-based or functional assay
# [6] = target: T4, αvβ3 integrin expressed on K562-αvβ3 cells (UniProt P06756 31-1048; P05106 27-788); test: flow cytometry, direct binding to K562-αvβ3 cells, anti-His detection
# T4 construct: whole, on cells
# T4 sequence (P06756 31-1048, chain 1 of 2): as the sequence (P06756 31-1048, chain 1 of 2) above
# T4 sequence (P05106 27-788, chain 2 of 2): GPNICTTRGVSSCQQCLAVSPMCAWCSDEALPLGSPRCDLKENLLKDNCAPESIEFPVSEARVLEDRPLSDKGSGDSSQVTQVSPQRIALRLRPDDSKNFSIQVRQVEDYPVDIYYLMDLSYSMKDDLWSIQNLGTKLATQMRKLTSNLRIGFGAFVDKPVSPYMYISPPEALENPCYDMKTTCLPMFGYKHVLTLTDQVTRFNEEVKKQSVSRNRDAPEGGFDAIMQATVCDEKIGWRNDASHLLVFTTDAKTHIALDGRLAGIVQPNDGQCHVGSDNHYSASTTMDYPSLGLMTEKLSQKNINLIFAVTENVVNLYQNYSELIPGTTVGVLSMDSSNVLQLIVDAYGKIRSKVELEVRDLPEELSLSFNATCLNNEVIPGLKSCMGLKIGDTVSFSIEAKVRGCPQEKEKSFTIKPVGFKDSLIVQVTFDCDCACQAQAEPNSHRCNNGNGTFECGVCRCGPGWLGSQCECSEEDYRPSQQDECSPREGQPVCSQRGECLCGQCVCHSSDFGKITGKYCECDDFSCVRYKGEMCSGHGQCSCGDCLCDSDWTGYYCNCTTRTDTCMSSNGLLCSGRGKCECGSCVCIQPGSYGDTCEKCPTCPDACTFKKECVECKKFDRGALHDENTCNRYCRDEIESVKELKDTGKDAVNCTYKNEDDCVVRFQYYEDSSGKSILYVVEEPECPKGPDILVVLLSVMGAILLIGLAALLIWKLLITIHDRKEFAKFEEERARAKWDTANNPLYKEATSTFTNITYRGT
# [7] = target: T4, αvβ3 integrin expressed on K562-αvβ3 …; test: flow cytometry, peptide titrated on K562-αvβ3 cells, anti-His detection
# [8] = target: T4, αvβ3 integrin expressed on K562-αvβ3 …; test: flow cytometry, peptide titrated on K562-αvβ3 cells
Molecule,"aggregation (IC50; nM), human platelets [1]","inhibition of ADP-induced platelet aggregation, IC50 [1]",binding result [2],binding result [3],Kd [4],"aggregation (IC50; nM), human platelets [5]",binding result [6],Kd [7],Kd [8]
eptifibatide (peptide),94 nM,80 nM,,,,,,,
B1,,,no binding (tested: 1 µM),no binding (tested: 1 µM),87 nM,72 nM,no binding (tested: 1 µM),,
B2,,,no binding (tested: 1 µM),no binding (tested: 1 µM),59 nM,91 nM,no binding (tested: 1 µM),,
B3,,,no binding (tested: 1 µM),no binding (tested: 1 µM),87 nM,110 nM,no binding (tested: 1 µM),,
B4,,,no binding (tested: 1 µM),no binding (tested: 1 µM),70 nM,66 nM,,28 nM,~25 nM
B5,,,no binding (tested: 1 µM),no binding (tested: 1 µM),42 nM,50 nM,,23 nM,~25 nM
